Experimental data reported in patent US20240287172A1 (SCIRHOM, published 2024).

Molecular target: T1, hiR2-FL-G563D-T7 (human, UniProt Q6PJF5 1-856)
T1 sequence: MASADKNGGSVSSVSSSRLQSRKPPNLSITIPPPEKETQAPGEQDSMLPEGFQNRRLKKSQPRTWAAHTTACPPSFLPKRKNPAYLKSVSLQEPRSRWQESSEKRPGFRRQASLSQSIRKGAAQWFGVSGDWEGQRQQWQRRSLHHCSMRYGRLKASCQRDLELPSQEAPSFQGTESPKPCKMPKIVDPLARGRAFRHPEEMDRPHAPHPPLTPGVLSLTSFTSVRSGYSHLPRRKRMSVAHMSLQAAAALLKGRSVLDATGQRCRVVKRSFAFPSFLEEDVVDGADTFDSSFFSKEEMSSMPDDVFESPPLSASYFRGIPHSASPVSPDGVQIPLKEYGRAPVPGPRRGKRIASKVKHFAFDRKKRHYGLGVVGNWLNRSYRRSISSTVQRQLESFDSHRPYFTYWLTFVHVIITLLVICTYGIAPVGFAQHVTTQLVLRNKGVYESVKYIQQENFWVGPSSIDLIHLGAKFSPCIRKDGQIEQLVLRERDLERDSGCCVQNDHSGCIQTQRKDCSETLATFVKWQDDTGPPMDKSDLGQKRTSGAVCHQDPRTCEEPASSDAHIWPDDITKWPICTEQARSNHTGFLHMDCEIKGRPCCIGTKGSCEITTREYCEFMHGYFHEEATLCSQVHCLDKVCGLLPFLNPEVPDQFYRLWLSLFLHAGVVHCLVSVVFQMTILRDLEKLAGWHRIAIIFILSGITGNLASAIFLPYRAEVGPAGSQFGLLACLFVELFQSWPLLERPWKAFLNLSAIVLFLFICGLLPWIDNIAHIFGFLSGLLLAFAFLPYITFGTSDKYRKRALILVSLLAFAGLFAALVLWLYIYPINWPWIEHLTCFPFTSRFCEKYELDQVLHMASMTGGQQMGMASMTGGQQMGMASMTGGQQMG
Assay: FACS, MEF-DKO cells, 3 µg/ml
Outline: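 MEF-DKO cells expressing T7-tagged full-length hiR2 point mutants were stained on ice for 1 h with purified antibodies at 3 μg/ml in FACS buffer. Detection used PE-conjugated goat anti-mouse IgG F(ab′)2 (1:100, 1 h on ice), read by flow cytometry; buffer-only wells served as controls.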

B1: antibody 50 (antibody, V domains shown)
VH: QVQLQQSGAELVRPGASVKVSCKASGYAFSNYLIEWVKQRPGQGLEWIGVINPGSGFTKYNEKFKGKATLTADKSSSTAYMQLSSLTSEDSAVYFCARGLYRAMDYWGQGTSVTVSS
VL: DIQMTQSPASQSASLGESVTITCLASQTIGTWLAWYQQKPGKSPQLLIYAAASLADGVPSRFSGGGSGTKFSFKISSLQAEDFVNYYCQQIYSTPYTFGGGTKLEIK
notes: mouse IgG, kappa light chain; also called clone #50; purified antibody 50
loss of binding vs wild type: ≥ 30%
